Assays:
[1] = target: c-Met on human cancer cells (human) (UniProt P08581)
[2] = target: c-Met on human cancer cells (human) (UniProt P08581); remark: listed apart in the source

## antibody 5D5 (ATCC Cat. # HB11895)
[1]
  relative cell viability (%) of MKN45 cells, 72 h: 53%
[2]
  Akt phosphorylation (%) in Caki-1 cells, 5 ug/ml, 30 min: 100%
